Reference: article PMC5575937

T1: ETV6RAE (Mus musculus (murine), UniProt P97360 329-446, C334S;H432R;S435A;Q436E)
T1 sequence: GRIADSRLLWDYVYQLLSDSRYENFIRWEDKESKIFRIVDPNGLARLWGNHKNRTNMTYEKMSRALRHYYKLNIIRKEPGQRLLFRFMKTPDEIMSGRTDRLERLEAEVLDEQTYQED

T2: ETV6H432R (Mus musculus (murine), UniProt P97360 329-446, C334S;H432R)
T2 sequence: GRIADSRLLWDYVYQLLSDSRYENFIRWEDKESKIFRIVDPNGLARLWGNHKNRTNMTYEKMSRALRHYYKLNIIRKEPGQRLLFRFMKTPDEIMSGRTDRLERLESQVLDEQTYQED

T3: ETV62C-red (Mus musculus (murine), UniProt P97360 329-446, C334S;A393C;V437C)
T3 sequence: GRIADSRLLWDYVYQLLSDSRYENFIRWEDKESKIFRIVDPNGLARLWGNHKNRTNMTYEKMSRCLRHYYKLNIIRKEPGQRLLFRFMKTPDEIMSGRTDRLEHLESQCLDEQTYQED


Columns and labels:
ETV6RAE = biological target: T1, ETV6RAE; experiment: EMSA
ETV6H432R = biological target: T2, ETV6H432R; experiment: EMSA
ETV62C-red = biological target: T3, ETV62C-red; experiment: NMR

| Binder | Kd (ETV6RAE) | Kd (ETV6H432R) | binding result (ETV62C-red) |
| --- | --- | --- | --- |
| 23-bp ETS consensus duplex (dsDNA) DNA 1: CGGCCAAGCCGGAAGTGAGTGCC DNA 2: GGCACTCACTTCCGGCTTGGCCG | 90 ± 10 nM | 30 ± 10 nM | – |
| 15-bp ETS consensus duplex (dsDNA) DNA 1: CAAGCCGGAAGTGAG DNA 2: CTCACTTCCGGCTTG | – | – | binds |
